In publication PMC8273617:

What was measured:
[1] = target: VWF (Homo sapiens) (UniProt P04275); details: cited from earlier work
[2] = target: CD16 (Homo sapiens) (UniProt P08637); details: cited from earlier work
[3] = target: Fc gamma receptor IIIA (FcγRIIIA/CD16) on PTA-6967 NK cells (human) (UniProt P08637)
[4] = target: Fc gamma receptor IIIA (FcγRIIIA/CD16) on PTA-6967 NK cells (human) (UniProt P08637); remark: listed apart in the source

Sequence of Fc gamma receptor IIIA (FcγRIIIA/CD16) on PTA-6967 NK cells (human) (P08637 17-254): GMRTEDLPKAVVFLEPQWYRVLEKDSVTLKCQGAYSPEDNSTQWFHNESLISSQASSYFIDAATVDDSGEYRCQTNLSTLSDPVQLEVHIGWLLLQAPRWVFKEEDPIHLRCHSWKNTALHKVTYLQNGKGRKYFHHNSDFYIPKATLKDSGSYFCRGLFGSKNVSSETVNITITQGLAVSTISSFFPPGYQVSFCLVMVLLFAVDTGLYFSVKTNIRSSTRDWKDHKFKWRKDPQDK
Sequence of CD16 (Homo sapiens) (P08637 17-254): as above
Sequence of FVIII (P00451 20-2351): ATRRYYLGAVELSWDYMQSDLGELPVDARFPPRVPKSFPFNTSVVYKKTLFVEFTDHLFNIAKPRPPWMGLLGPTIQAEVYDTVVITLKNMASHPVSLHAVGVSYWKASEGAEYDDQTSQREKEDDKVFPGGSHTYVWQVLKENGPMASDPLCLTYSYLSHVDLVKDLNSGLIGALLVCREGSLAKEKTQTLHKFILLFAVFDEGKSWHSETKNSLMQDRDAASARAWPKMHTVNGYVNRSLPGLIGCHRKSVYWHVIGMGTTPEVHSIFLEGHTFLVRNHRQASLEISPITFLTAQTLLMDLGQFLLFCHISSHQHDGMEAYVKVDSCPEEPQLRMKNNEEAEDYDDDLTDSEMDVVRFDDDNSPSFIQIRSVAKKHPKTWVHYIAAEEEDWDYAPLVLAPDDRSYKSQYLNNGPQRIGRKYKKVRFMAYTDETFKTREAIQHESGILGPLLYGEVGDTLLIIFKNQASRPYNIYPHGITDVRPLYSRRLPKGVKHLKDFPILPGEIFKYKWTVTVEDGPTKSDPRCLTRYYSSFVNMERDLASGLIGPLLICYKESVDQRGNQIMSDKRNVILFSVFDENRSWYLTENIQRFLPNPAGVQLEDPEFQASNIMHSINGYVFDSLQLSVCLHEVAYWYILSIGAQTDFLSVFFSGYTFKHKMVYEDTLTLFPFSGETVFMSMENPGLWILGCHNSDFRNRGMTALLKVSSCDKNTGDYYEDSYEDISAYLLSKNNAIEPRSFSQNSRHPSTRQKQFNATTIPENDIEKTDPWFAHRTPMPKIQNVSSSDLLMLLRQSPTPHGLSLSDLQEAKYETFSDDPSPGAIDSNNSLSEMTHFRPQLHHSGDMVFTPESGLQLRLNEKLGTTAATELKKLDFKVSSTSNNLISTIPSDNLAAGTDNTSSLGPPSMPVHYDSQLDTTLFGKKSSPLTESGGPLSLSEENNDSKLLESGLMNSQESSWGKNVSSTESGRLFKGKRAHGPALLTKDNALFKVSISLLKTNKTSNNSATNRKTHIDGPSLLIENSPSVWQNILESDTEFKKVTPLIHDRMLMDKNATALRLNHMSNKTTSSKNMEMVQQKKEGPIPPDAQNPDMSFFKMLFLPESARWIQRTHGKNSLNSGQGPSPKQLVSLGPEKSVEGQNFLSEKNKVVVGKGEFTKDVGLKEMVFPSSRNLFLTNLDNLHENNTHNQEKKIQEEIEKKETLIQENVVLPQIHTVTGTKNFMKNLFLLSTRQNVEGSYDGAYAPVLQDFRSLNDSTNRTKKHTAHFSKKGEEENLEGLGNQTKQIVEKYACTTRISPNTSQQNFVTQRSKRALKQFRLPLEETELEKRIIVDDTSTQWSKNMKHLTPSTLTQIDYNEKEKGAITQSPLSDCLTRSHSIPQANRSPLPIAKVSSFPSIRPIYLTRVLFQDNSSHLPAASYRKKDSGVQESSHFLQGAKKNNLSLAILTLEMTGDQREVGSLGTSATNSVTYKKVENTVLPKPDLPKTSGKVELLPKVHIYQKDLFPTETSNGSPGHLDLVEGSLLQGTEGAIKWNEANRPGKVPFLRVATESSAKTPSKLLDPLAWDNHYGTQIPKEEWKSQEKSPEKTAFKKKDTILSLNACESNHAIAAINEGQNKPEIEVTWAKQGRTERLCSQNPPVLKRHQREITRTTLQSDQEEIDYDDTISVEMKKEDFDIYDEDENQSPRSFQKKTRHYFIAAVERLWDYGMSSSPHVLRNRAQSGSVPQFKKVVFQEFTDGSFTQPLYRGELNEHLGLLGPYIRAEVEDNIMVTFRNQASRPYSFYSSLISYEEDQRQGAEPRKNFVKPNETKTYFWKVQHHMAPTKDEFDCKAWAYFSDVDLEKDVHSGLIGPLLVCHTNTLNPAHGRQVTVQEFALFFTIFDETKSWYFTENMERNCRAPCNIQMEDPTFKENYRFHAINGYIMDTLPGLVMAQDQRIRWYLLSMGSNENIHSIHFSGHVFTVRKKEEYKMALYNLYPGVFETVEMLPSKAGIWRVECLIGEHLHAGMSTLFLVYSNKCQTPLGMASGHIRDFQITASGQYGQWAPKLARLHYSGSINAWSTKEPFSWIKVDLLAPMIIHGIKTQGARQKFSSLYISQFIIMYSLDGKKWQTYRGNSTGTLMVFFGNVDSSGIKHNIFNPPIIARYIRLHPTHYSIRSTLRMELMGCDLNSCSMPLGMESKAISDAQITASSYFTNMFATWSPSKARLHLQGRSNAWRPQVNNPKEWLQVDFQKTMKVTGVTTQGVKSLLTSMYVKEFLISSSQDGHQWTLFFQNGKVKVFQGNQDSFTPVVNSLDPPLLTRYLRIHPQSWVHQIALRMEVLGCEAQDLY

FVIII (from UniProt P00451)
Kd [1]: 0.2 nM

IgG1 Fc Fc (from UniProt P01857)
Kd [2]: 1000 nM

recombinant Factor VIII Fc-fusion protein (rFVIIIFc) (Fc fusion)
EC50 of IFNγ secretion (ELISA) by CD16^+ NK cells (PTA-6967), overnight, rFVIIIFc 250 nM to 7.6 pM (Figure 2B) [3]: 0.0064 µM | surface CD107a (LAMP1), % LAMP1^+ PTA-6967 NK cells by flow cytometry after 6 hours with 250 nM rFVIIIFc, against untreated cells (Figure 2E) [4]: 8 fold
